Legend:
clear cell EOC PDX PH250 = details: mouse, in vivo
Protocol: Mouse experiments were approved by the University of Queensland Animal Ethics Committee. For PET/CT imaging female NOD.Cg-Prkdc^scid Il2rg^tmwil/SzJ mice (6-8 weeks; 4 per group; Jackson Laboratory, Bar Harbor, Me.) were injected intraperitoneally with cells dissociated from a previously described clear cell EOC PDX designated PH250 (Weroha S J, et al., (2014) Clin Cancer Res. 2014; 20(5):1288-97) (0.2 g/mouse of pelleted cell slurry). CDCP1 expression by PDX PH250 was assessed by immunohistochemical and Western blot analysis as described (He Y, et al., (2016) Oncogene. 35(4):468-78.). 10D7 and IgG1K control were labelled with the positron-emitting radionuclide ^89Zr as described (Zeglis B M, et al., (2015) J Vis Exp. (96): 52521)), and yield and purity determined by radio-TLC and -HPLC (Agilent, Mulgrave, Australia). […] PET image acquisition (30 minutes) was followed by CT for anatomical registration and attenuation correction, with images reconstructed and analyzed using the Inveon Research Workspace (Siemens). Ex vivo bio-distribution was assessed after the final imaging time point. Harvested tumour and organs, cleaned of blood, were weighed and radioactivity quantified using a PerkinElmer 2480 Automatic Gamma Counter (Perkin Elmer, Milton, Australia) and presented as % ID/g of tumour or tissue. […]

[1] = test system: CDCP1-positive TKCC05 cells; assay: Lindmo assay, immune-reactive fraction; assay type: binding, human; details: 3 h at 4° C.
Protocol: 10D7 and control IgG1κ were labelled with the positron-emitting radionuclide ^89Zr as described (Zeglis B M and Lewis J S (2015) J Vis Exp 96:52521). Yield and purity of the labelled antibodies were determined by radio-TLC and -HPLC (Agilent, Mulgrave, Australia). To assess the impact of radiolabelling on 10D7 binding, the immune-reactive fraction (IRF) of 10D7-^89Zr was determined by Lindmo assay as previously described (Burvenich I J et al (2016) J Nucl Med. 57(6):974-80). Briefly, serially diluted TKCC05 cells (5×10^6-0.156×10^6 cells) were incubated with various amounts of 10D7-^89Zr alone or in the presence of a saturating amount of unlabelled 10D7 antibody (700 nM). After incubation (3 h at 4° C.) cells were centrifuged and the radioactivity of the cell pellet and supernatant was determined using a Wizard 2480 gamma counter (Perkin Elmer, Milton, Australia) and immunoreactive fraction (IRF) was calculated as previously described (Tolmachev V, Orlova A, Andersson K. (2014) Methods Mol Biol. 1060:309-30; Burvenich I J et al (2016) J Nucl Med. 57(6):974-80).
To evaluate whether the ability of antibody 10D7 to disrupt cellular processes that promote PDAC in vitro can be harnessed to target this cancer in vivo, the inventors first evaluated the capacity of this antibody to detect PDAC xenografts in mice. […]

B1: ^89Zr-DFO-10D7 (conjugate)
VH: EVQLQQFGAELVKPGASVKISCKASGYSFSDFNIEWLKQSHGKSLEWIGDINPNYDSTNYNQKFKGRATLTVDKSSSTAYMEVRSLTSEDTAVYYCARLGYGYAMDYWGQGTSVTVSS
VL: NIVMTQSPQSMSMSVGERVTLSCKASENVGAYVSWFQQKPDQSPKLLILAASNRYTGVPARFIGSGSATDFTLTISSVQAEDLADYHCGQSYTYPYTFGGGTKLEIKRADAAPTVS
**Q.** With B1 as the molecule, how does the “percent injected dose per gram of tissue, tumour” value (clear cell EOC PDX PH250) read?
**A.** 47.7±2.6 % ID/g

**Q.** And the “immune-reactive fraction (IRF)” value [1]?
**A.** 88.9%

— patent US20220389113A1, “BINDING PROTEINS TO CUB DOMAIN-CONTAINING PROTEIN (CDCP1)” (COMMONWEALTH SCIENTIFIC AND INDUSTRIAL RESEARCH ORGANISATION, priority 2019, published 2022)
